# Measurements as given in patent publication US20120148607A1 (ARGEN X N V, published 2012).
# Where a chain is given by its changes, count along the chain named.
# B1: 36C4Q Fab (Fab, V domains shown)
# VH: QVQLVESGPGLVKPSQTLSLTCAVSGGSITTNYYYWSWIRQSPGKGLEWMGVIAYDGSTDYSPSLKSRTSISRDTSKNQFSLQLSSVTPEDTAVYYCARDVRVIATGWATANALDAWGQGTQVTVSS
# VL: QSVLTQPPSVSGSPGKTVTISCAGTSSDVGYGNYVSWYQQLPGTAPKLLIFAVSYRASGIPDRFSGSKSGNTAFLTISGLQSEDEADYYCASYRSSNNAAVFGGGTHLTVL
# B2: 49A1 VL shuffled Fab (Fab, V domains shown)
# VH: B1 VH
# VL: B1 VL
# notes: VL-shuffled Fab with the 36C4Q heavy chain, periplasmic extract
# B3: 49D2 VL shuffled Fab (Fab, V domains shown)
# VH: B1 VH
# VL: B1 VL with S13T, P14L, V18L, S27T
# notes: as for B2
# B4: 49A11 VL shuffled Fab (Fab, V domains shown)
# VH: B1 VH
# VL: B1 VL with V3A, Q40K, F51Y, K68R, F74S, S95I, S96T, N98R, A99H, A100S
# notes: as for B2
# B5: 49D3 VL shuffled Fab (Fab, V domains shown)
# VH: B1 VH
# VL: B1 VL with Q1L, S2P, S13T, P14L, V18L, F51Y, F74S, T76S, N98K, A99N
# notes: as for B2
# B6: 49C4 VL shuffled Fab (Fab, V domains shown)
# VH: B1 VH
# VL: QSALTQPPSVSGTLGKTVTISCAGTSSDVGYGNYVSWYQKLPGTAPKLLIYAVTYRASGIPDRFSGSKSGNTASLTISGLQSEDEADYYCASYRRSTNVGVFGGGTHLTVL
# notes: as for B2
# B7: 49G3 VL shuffled Fab (Fab, V domains shown)
# VH: B1 VH
# VL: B1 VL with V3A, S13T, P14L, V18L, S27T
# notes: as for B2
# B8: 49E11 VL shuffled Fab (Fab, V domains shown)
# VH: B1 VH
# VL: B6 VL with S2A, A3V, T54S, Y89H, R95T, T97N, G100A, H107K
# notes: as for B2
# B9: 48A1 VL shuffled Fab (Fab, V domains shown)
# VH: EVQLVQPGVELRNPGASVKVSCKASGYIFTMNSIDWVRQAPGQGLEWMGRIDPEDGGTKYAQKFQGRVTFTADTSTSTAYVELNSLRSEDTAVYYCARVDDYYLGYDYWGQGTQVTVSS
# VL: EIVMTQSPSSVTASAGEKVTINCKSSQSVLWRSNQKNYLAWYQQRLGQSPRLLISWASIRESGVPDRFSGSGSTTDFTLTISSFQPEDAAVYYCQQGYSFPYTFGSGTRLEIK
# notes: VL-shuffled Fab with the 38H10 heavy chain, periplasmic extract; The printed 48A1 VK reads the same as the 38H10 VK
# B10: 48A11 VL shuffled Fab (Fab, V domains shown)
# VH: B9 VH
# VL: DIVMTQTPSSVTAAVGEKVAINCKSSQSVLYNPNQKSYLAWYQQRPGQSPRLLIYWASTRESGVPDRFSGSGSTTDFALTISSFQPEDAAVYYCQQGYSFPYSFGSGTRLEIR
# notes: VL-shuffled Fab with the 38H10 heavy chain, periplasmic extract
# B11: 38H10 Fab (Fab, V domains shown)
# VH: B9 VH
# VL: B9 VL
# notes: Fab from the phage display library, tested as periplasmic extract
# B12: 48D2 VL shuffled Fab (Fab, V domains shown)
# VH: B9 VH
# VL: B9 VL with E1D, S7T, W31Y, R32N, S55Y, I59T, Y98W
# notes: as for B10
# B13: 48D7 VL shuffled Fab (Fab, V domains shown)
# VH: B9 VH
# VL: DIVMTQTPASVTASAGEKVTINCKSSQSVLFSSNQKNYLAWYQQRVGQSPRLLIYWASTRESGVPDRFSGSGSTTDFTLTISNFQPEDAAVYYCQQGYSFPYSFGSGTRLEIR
# notes: as for B10
# B14: 48C8 VL shuffled Fab (Fab, V domains shown)
# VH: B9 VH
# VL: B9 VL with E1D, V3Q, M4L, A13V, A15V, W31Y, R32N, S55Y, I59T, Y98W
# notes: as for B10
# B15: 48B8 VL shuffled Fab (Fab, V domains shown)
# VH: B9 VH
# VL: B9 VL with E1D, I2V, A15V, W31Y, R32T, Q35H, S55Y, I59T, Y98W, T103S
# notes: as for B10
# B16: 48E5 VL shuffled Fab (Fab, V domains shown)
# VH: B9 VH
# VL: B9 VL with E1D, V3Q, W31Y, R32N, S55Y, I59T, Y98W
# notes: as for B10
# B17: 48B6 VL shuffled Fab (Fab, V domains shown)
# VH: B9 VH
# VL: B9 VL with E1D, V3Q, M4L, W31Y, R32G, S55Y, I59T, Y98W
# notes: as for B10
# B18: 48E2 VL shuffled Fab (Fab, V domains shown)
# VH: B9 VH
# VL: B13 VL with I2V, T7S, A9S, F31W
# notes: as for B10
# B19: 20A11 Fab (Fab, V domains shown)
# VH: QVQLVESGGGLVQPGGSLRLSCAASGFTFDDYAMSWVRQAPGKGLEWVSAISWNGSSTYYAESMKGRFTISRDNAKNTLYLQMNSLKSEDTAVYYCAKDLIGSHDYWGQGTQVTVSS
# VL: QAVLTQPPSVSGTLGKTLTISCAGTSSDVGYGNYVSWYQQLPGTAPKLLIYAVSTRASGIPDRFSGSKSGNTASLTISGLQSEDEADYYCASYRSSNNYAFGAGTKLTVL
# notes: as for B11
# B20: 20F1 Fab (Fab, V domains shown)
# VH: EVQVQESGPGLVKPSQTLSLTCTVSGGSMTGNYYAWSWIRQPPGKGLEWMGVIAYDGSTYYSPSLKSRTSISRDTSKNQFSLQLSSVSPEDTAVYYCARGPGWYSGSRNDYWGQGTQVTVSS
# VL: QSALTQPPSVSGSPGKTVTISCTGTNSDVGYGNYVSWYQQLPGMAPKLLIYDVNRRASGIADRFSGSKSGNTASLTISGLQSEDEGDYHCASYRSANNAVFGGGTHLFVL
# notes: as for B11
# B21: 34H7 Fab (Fab, V domains shown)
# VH: ELQLVESGGALVQPGGSLRLSCVESGFTFSSYAMSWVRQAPGKGLEWVSGIYKGGGPKYANSVKGRFTISRDNAKNTLYLQMNSLKPEDTAVYYCAKSGYGSSLGDFGSWGQGTQVTVSS
# VL: QAGLTQLSSMSGSPGQTVTITCTGSSSNIGGGYYLSWYQHLPGTAPKLLIYSNINRASGVPDRFSGSTSGISASLTITGLQAEDEADYYCSSWDDSVSGPVFGGGTSLTVL
# notes: as for B11
# B22: 12G4 Fab (Fab, V domains shown)
# VH: QLQLVESGGGMAQPGGSLKLSCAASGFTFDDYAMTWVRQAPGKGLEWLSTISWNDINTYYAESMKDRFTISRDNAKNTLYLQMNSLESEDTAVYYCAKRRDNYYGTSGEYDYWGQGTQVTVSS
# VL: QSALTQPPSVSGTLGKTVTISCAGTSSDIGNYNYVSWYQQLPGTAPKLLIYEVNKRPSGIPDRFSGSKSGNTASLSISGLQSEDEADYYCASYRSSNNVVFGGGTKLTVL
# notes: as for B11
# B23: 13E6 Fab (Fab, V domains shown)
# VH: QVQLQESGGDLVQPGGSLRLSCAASGFTFDDYVMNWVRQAPGKGLEWISAINWNGGSTYYAESMKGRFTISRDNAKNTLYLQMYSLQSDDTAVYYCVKDTVVSGNGYWGQGTQVTVSS
# VL: B22 VL with A3V, N31D, E52D, P57A, S96R, N98D, V99Y, V100A
# notes: as for B11
# B24: 40B8 Fab (Fab, V domains shown)
# VH: EVQLVQPGAELRNPGASVKVSCKASGYTFTNYVIDWVRQAPGQGLEWMGRIDPENGGTRYAQKFQGRVTFTADTSTSTAYVELSNLRSEDTAVYYCARLEDYELAYDYWGQGTQVTVSS
# VL: DIVMTQTPSSVTASAGEKVTINCKSSQSVLLSSNQKNYLAWYQQRLGQSPRLLIYWASTRESGVPDRFSGSGSTTDFTLTISSFQPEDAAVYYCQQGVSFPLTFGQGTKVELK
# notes: as for B11
# B25: 36C4 Fab (Fab, V domains shown)
# VH: B1 VH with Q122L
# VL: B1 VL
# notes: as for B11
# Molecular target: T1, recombinant dimeric c-Met (R&D systems, 358-MT/CF) (human, UniProt P08581 25-932)
# T1 construct: Bought product; also called Fc-Met; recombinant c-Met
# T1 sequence (P08581 25-932 limits assumed): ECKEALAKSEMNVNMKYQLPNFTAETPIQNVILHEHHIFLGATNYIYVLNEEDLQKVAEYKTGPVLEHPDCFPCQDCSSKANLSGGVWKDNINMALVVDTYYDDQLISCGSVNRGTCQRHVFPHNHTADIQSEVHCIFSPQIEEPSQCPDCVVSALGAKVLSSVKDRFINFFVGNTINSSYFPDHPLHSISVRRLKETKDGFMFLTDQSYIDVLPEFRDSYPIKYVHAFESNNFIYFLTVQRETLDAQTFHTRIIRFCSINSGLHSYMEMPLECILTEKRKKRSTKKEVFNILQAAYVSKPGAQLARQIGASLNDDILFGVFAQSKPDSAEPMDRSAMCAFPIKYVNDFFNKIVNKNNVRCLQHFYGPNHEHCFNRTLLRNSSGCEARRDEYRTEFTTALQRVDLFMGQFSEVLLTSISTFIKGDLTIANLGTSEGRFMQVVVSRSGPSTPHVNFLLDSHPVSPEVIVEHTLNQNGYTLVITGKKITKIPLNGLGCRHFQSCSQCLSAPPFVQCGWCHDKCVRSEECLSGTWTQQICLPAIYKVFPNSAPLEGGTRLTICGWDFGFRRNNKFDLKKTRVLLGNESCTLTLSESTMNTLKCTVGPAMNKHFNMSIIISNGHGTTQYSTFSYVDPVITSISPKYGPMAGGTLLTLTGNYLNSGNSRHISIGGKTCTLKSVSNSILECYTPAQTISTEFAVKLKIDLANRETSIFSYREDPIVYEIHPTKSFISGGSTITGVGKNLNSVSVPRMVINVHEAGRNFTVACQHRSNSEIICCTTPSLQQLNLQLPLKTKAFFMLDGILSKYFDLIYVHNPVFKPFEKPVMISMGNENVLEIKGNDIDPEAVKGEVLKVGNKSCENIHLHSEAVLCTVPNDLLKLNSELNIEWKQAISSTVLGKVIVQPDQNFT
# Assay: SPR, periplasmic Fab over Fc-Met (around 3000 RU) on CM5 chip
# Method: The clones were then tested for their dissociation constants by Surface Plasmon Resonance. Around 3000 RU of Fc-Met was immobilized directly onto a CM5 chip to obtain a clear binding profile from the periplasmic extracts. Clones with an improved off-rate were sent for sequencing.
row,Binder,koff [s⁻¹]
1,B1,0.00017
2,B2,0.00017
3,B3,0.00017
4,B4,0.00048
5,B5,0.00082
6,B6,0.00018
7,B7,0.00019
8,B8,0.00063
9,B9,0.00081
10,B10,0.00025
11,B11,0.0005
12,B12,0.00013
13,B13,0.00025
14,B14,0.00033
15,B15,0.00033
16,B16,0.00019
17,B17,0.00012
18,B18,0.00029

# Molecular target: T1, recombinant dimeric c-Met (R&D systems, …)
# Assay: SPR, Fab-containing periplasmic extract over immobilised c-Met, dissociation 2 min
# Method: HGF-competing clones were sequenced in the VH and the VL regions and divided into VH families based on the sequence of the CDR3 in the VH. These VH families were further tested with Surface Plasmon Resonance (SPR) for dissociation (koff) and recognition of SEMA-PSI or the extracellular domain of c-Met (Decoy). Between 1000-2000 RU of dimeric c-Met, SEMA-PSI or Decoy c-Met was immobilised on a VIA chip with amine coupling in sodium acetate buffer (pH 4.5). The Fab-containing peris were added with a flow rate of 30 μl/min and Fabs were considered to be binding if an increase of the RU was observed. The koff was measured for 2 minutes for each sample.
row,Binder,koff [s⁻¹]
1,B19,0.0009
2,B20,0.0069
3,B21,0.0016
4,B22,0.00013
5,B23,0.00065
6,B24,0.0013
7,B25,0.00064
8,B11,0.0012
